In patent US7501273B2, “Peptidylarginine deiminase 6” (N.V. Organon, priority 2001, dated 2009):

Test system: Soybean Trypsin Inhibitor (STI)
Assay: Determination of PAD6 enzyme activity: citrullination of STI, read out as trypsin activity on a fluorescent substrate
Type: biochemical
Settings: 0.5 or 1.0 μg GST-PAD6, 0.17 μg STI, 30 minutes at 37° C., 5 mM CaCl2; FIG. 5
Description: Another example of determining the enzymatic activity of PAD6 makes use of the inactivation of a protein e.g. Soybean Trypsin Inhibitor (STI) (Talcahara, H. et al. 1985, J. Biol. Chem. 260, 8378–8383. When an essential arginine in STI is converted into citrulline it is no longer able to inhibit the proteolytic activity of trypsin. This can be used as the basis for a two-step assay for the determination of PAD activity. The assay consists of two steps. In the first reaction PAD converts the arginine (position 63) in STI into a citrulline inactivating the STI. In the second reaction trypsin and a fluorescent substrate are added and trypsin activity is measured.
FIG. 5 Fluorescence measurement to determine PAD activity. STI (0.17 μg) was pre-incubated in the absence (filled square) or presence of 0.5 μg GST-PAD6 (filled triangle), 1.0 μg GST-PAD6 (open triangle), or 0.1 μg rabbit muscle PAD (open square; Sigma cat. No P1584) respectively. Subsequently, Nα-benzoyl-L-Arginine-7-amido-4-methylcoumarin (100 μM; Sigma cat. No. B7260) and trypsin (0.25 μg) were added, and fluorescence determined.
The activity of the PAD was determined by the formation of citrulline in Soybean Trypsin Inhibitor (STI) as a substrate. […] Therefore, an increased activity of trypsin, as detected with a fluorescent trypsin substrate, indicates PAD activity. […]

PAD activity (increased trypsin activity, fluorescence): could be detected
B1: PAD6: Recombinant full-length human peptidylarginine deiminase 6 (SEQ ID NO:3) expressed in E. coli as GST fusion protein (protein)
chain: MSFQSIIHLSLDSPVHAVCVLGTEICLDLSGCAPQKCQCFTIHGSGRVLIDVANTVISEKEDATIWWPLSDPTYATVKMTSPSPSVDADKVSVTYYGPNEDAPVGTAVLYLTGIEVSLEVDIYRNGQVEMSSDKQAKKKWIWGPSGWGAILLVNCNPADVGQQLEDKKTKKVIFSEEITNLSQMTLNVQGPSCILKKYRLVLHTSKEESKKARVYWPQKDNSSTFELVLGPDQHAYTLALLGNHLKETFYVEAIAFPSAEFSGLISYSVSLVEESQDPSIPETVLYKDTVVFRVAPCVFIPCTQVPLEVYLCRELQLQGFVDTVTKLSEKSNSQVASVYEDPNRLGRWLQDEMAFCYTQAPHKTTSLILDTPQAADLDEFPMKYSLSPGIGYMIQDTEDHKVASMDSIGNLMVSPPVKVQGKEYPLGRVLIGSSFYPSAEGRAMSKTLRDFLYAQQVQAPVELYSDWLMTGHVDEFMCFIPTDDKNEGKKGFLLLLASPSACYKLFREKQKEGYGDALLFDELRADQLLSNGREAKTIDQLLADESLKKQNEYVEKCIHLNRDILKTELGLVEQDIIEIPQLFCLEKLTNIPSDQQPKRSFARPYFPDLLRMIVMGKNLGIPKPFGPQIKGTCCLEEKICCLLEPLGFKCTFINDFDCYLTEVGDICACANIRRVPFAFKWWKMVP
modifications: left off: a dimerising Fc or GST
